Laboratory results taken from IntAct's records for PubMed 18550832.

Molecular target: stk39_mouse Stk39 (UniProt Q9Z1W9)

## Serine/threonine-protein kinase WNK3 (Homo sapiens), Q9BYP7-2 F1337A
  effect of a mutation on the interaction: disrupting interaction
